# Test: soluble on expression in E. coli; label from the status in PepcDB or PDB records
row,Sequence,soluble on expression in E. coli
1,MTVPDRSEIAGKWYVVALASNTEFFLREKDKMKMAMARISFLGEDELKVSYAVPKPNGCRKWETTFKKTSDDGEVYYSEEAKKKVEVLDTDYKSYAVIYATRVKDGRTLHMMRLYSRSPEVSPAATAIFRKLAGERNYTDEMVAMLPRQEECTVDEV,soluble
2,MGDVVADALEKLSADQIEQFRKYFNMFDKEGKGYIRATQVGQILRTMGQAFEERDLKQLIKEFDADGSGEIEFEEFAAMVANFVVNNENDEGLEEELREAFRLYDKEGNGYINVSDLRDILRALDDNVSEEELDEMIAEIDADGSGTVDFDEFMEMMSGE,soluble
3,MFDFSKVVDRHGTWCTQWDYVADRFGTADLLPFTISDMDFATAPCIIEALNQRLMHGVFGYSRWKNDEFLAAIAHWFSTQHYTAIDSQTVVYGPSVIYMVSELIRQWSETGEGVVIHTPAYDAFYKAIEGNQRTVMPVALEKQADGWFCDMGKLEAVLAKPECKIMLLCSPQNPTGKVWTCDELEIMADLCERHGVRVISDEIHMDMVWGEQPHIPWSNVARGDWALLTSGSKSFNIPALTGAYGIIENSSSRDAYLSALKGRDGLSSPSVLALTAHIAAYQQGAPWLDALRIYLKDNLTYIADKMNAAFPELNWQIPQSTYLAWLDLRPLNIDDNALQKALIEQEKVAIMPGYTYGEEGRGFVRLNAGCPRSKLEKGVAGLINAIRAVR,soluble
4,MFREESRSVPVEEGEVYDVTIQDIARQGDGIARIEGFVIFVPGTKVGDEVRIKVERVLPKFAFASVVE,soluble
5,MSLAFRTLSFGIKRSQPKKKDADDLNKKKELSTITEESLRRYDELREKMIGKVESKIEKKVKKNKKKASIEILASRKRVHDSDGDSENEVEETVGDVEKRMQKLLDDIRRTNRIFTWGDHLPNIILRFSDSSMSPSLLNRLSENSIRQPSPIQMQSIPFMTERRNVLASAPTGSGKTLAFALPVIDEILELKQRADYSSSNSSKLLAVVLEPTRELAAQTYTEFLKYCANTSISAANFSGEETDIQHADILVSTPNRIVFHLDKIDTSSLRWLVVDESDRLFEVVEGQDKCFRNQLAAIYKACDAKCTRVAFFSATFSHEVEKWCKENIDEIGMVCVGERNSSNTSVKQKLTYCGTEDGKKIAIRNLLRTSFKPPALVFVQSKDRAVQLVKLLSAIDSNLKVDSINSGKSDKERDETMERFRRGEIWVLVCTELLGRGLDLSDVGLVINYDLPTSIVSYIHRVGRTGRAGKSGHAVTYFTDADMKYIKSIATVIRQSGFDVPEYLMEMKKVSRDRKKDMLKHAPKRHKIAIVKEQVIKKKKMLAKAAAEEKAKNKTETQTAEKPEKKIKKKKLIKKNNKNI,not soluble
6,MGSDKIHHHHHHMRVEDILDQLVMQSRDQDGAKYYISLINDMRIDRSVDPVKSIILEILSLCSDGRIDPWDVDLLKFAEIMNSFFGNSFIDFQFAGKAIADAWRVLRIKSDMSPKEQDRQMNDIGCEEPEDTDNFIPQNQVVIQLVPSVLTPQSRPVVLVDLIDEIRRKMYSSRLQKKKVDVHIEFDSSKLNPDRSEEMIEKTYRAIIESGKQKVFMSEIWGNTRRERAVFFLYSMFLFRDGRISLSQEEPNGDILIETNVI,not soluble
7,MGSDKIHHHHHHMNVHKIVWQEGMLLRPQHLQHNDRYYDNQMKARTQLLGSYNWGFLALELDRQFLNMGKLVISQASGVLPDGSLFELGGNTEPLALDVPPNTSNVPIYLALPLVTGNHIEARRPEQAEVLARYTAYDLEVADSNAGEDSMVQVSCARPDFRLLLGEQQSDQAYVKLKVAVVLDSTPDGVISLDPDFVPSYLHAHASAYLLSCLKEVISMLGHRGDTIAERIRSNGKVGGAEVGDFMMLQLINRTELLLRHYLGLEQVHPEQLYRVLLTMLGDLATFGSESKRPRLDSRYQHSDQGASFRRLMEAIRQVLSMVLEQHAIELPLQARQYGILVSPLHDHKLLGSASFVLAASANCESEELRQRLPAHLKVGAVEHIRQLVNLHLPGIRVKPLPVAPRQIPFHSNKTYFILEPNAEDMAQLERSGGFAFHVSGEFSELELKFWAIRN,not soluble
8,MGSDKIHHHHHHMKILHYIPSIDRTSGGVGTYMQLLTAELGKLVELHVVTHKETNPLELKNCHVHFIENNNPFLPKEKKNFIFLLNEIKPDVFHANCCWLPMSAYTAMWARNAGYHVVYTPHGMLEPWIMKRHYWTKKFPASLLFQKRGIQIANVIHATAESEKHNLTQLGWNNNIEVIPNCVEIDKITMKESWIRNKNILFLSRVHVKKGINFLIEATANLKTELQGYTINIAGEGEESYINELKQLASKLGVENLIHFIGGVYGDKKWELFKKADLFVLPTHSENFGIVVAEALACGTPVITTQGTPWQELESYHCGWWTEIGTEATTKALKEFLQCTETQLEQMGKNGRKLIEEKYSSQKVAQDMVELYKKVCL,not soluble
9,MARAIWKGAISFGLVHIPVALVSATTSNSVDFDWLDKRSMDPVGYKRINKVTGKEVTKENIVKGVLHEKDRYVVLSEEEIRSAHPKSTQTIDIFAFVDSQQIPLQNIDTPYFLTPDKRGEKVYALLRETLVDTQKVALANVVLHTREHLAAVMPLESALVMVILRWPADVRELDALELTEAVTDARLTKSERDMARRLVKDMSADWQPDQYHDTFQEKIMQLVQTKAGEGKIEDVETDPGEEERKSADVIDLTDLLRRSLAGKSSASKTRKPAAKDKVADKQSPKPKRPAVRKKTGKAS,not soluble
10,MDIYVCTVCGYEYDPAFEDLPDDWACPVCGASKDAFEKQ,soluble
11,SNAMAKNKLLRMDNVSIVVESLDNAISFFEEIGLNLEGRANVEGEWAGRVTGLGSQCVEIAMMVTPDGHSRIELSRFLTPPTIADHRTAPVNALGYLRVMFTVEDIDEMVSRLTKHGAELVGEVVQYENSYRLCYIRGVEGILIGLAEELGNK,soluble
12,MGGKMEKITCVGHTALDYIFNVEKFPEPNTSIQIPSARKYYGGAAANTAVGIKKLGVNSELLSCVGYDFKNSGYERYLKNLDINISKLYYSEEEETPKAWIFTDKDNNQITFFLWGAAKHYKELNPPNFNTEIVHIATGDPEFNLKCAKKAYGNNLVSFDPGQDLPQYSKEMLLEIIEHTNFLFMNKHEFERASNLLNFEIDDYLERVDALIVTKGSKGSVIYTKDKKIEIPCIKAGKVIDPTGAGDSYRAGFLSAYVKGYDLEKCGLIGAATASFVVEAKGCQTNLPTWDKVVERLEKHRI,soluble
13,MLPVTYRLIPQSGVSTYRLNTADTPVFPDIPEHAPNPSRLRLAHDSLAINSEFRLEPECVVEYLISGAGGIDPDTEIDDDTYDECYDELSSVLQNAYTQSETFRRLMNYAYEKELHDVEQRWLLGAGEAFETTVAQEHFKLSEGRKVICLNLDDSDDSYTEHYESNEGRQLFDTKRSFIHEVVHALTHLQDKEENHPRGPVVEYTNIILKEMGHPSPPRMVYIFNK,not soluble
14,MGHHHHHHSHMPLTSAFRAVDNDPGIIVWRIEKMELALVPVSAHGNFYEGDCYVILSTRRVASLLSQDIHFWIGKDSSQDEQSCAAIYTTQLDDYLGGSPVQHREVQYHESDTFRGYFKQGIIYKQGGVASGMKHVETNTYDVKRLLHVKGKRNIRATEVEMSWDSFNRGDVFLLDLGKVIIQWNGPESNSGERLKAMLLAKDIRDRERGGRAEIGVIEGDKEAASPELMKVLQDTLGRRSIIKPTVPDEIID,soluble
15,AIASIPFSNTHYRIPQGFGNLLEGLTREILREQPDNIPAFAAAYFESLLEKREKTNFDPAEWGSKVEDRFYNNHAFEEQEPPEKSDPKQEESQISGKEEETSVTILDSSEEDKEKEEVAAVKIQAAFRGHIAREEAKKMKTNSLQNEEKEENK,soluble
16,MGSDKIHHHHHHMKPLADRIRPENFNEVFGQKHIIGEGKILDRILKSSLVPNMIFYGPPGTGKTTVANIIAKKTNKAFYKLNATTASVKDVREITDSTNTLMGRNGVLLYLDEIQNFNKKQQQSLLEFMENGSITLIASTTENPYFYVYNAILSRSTIFEFKPLESDELMKAVNRAVELIKDELKTTEIIITEDAKKYAVGVSSGDVRKTLNSIEIAVYSTKPNEEGNIFIDLETMKECTQKNVLNFDKDGDNHYDILSAFQKSIRGSDADAAVLYLAMLIKGGDLKSICRRLLVIAAEDIGLAYPQAISIVKACTDSALELGFPEARIPLAEAVILLATSPKSNSAITAVDSALRDLDTINVGSIPDYLRDGHYEGAKKLGRMQDYKYPHSYENNYVKQKYLPSNLENRRYYEYGKNKIEEKCREYWERIKY,not soluble
17,MSLLQSALDFLAGPGSLGGASGRDQSDFVGQTVELGELRLRVRRVLAEGGFAFVYEAQDVGSGREYALKRLLSNEEEKNRAIIQEVCFMKKLSGHPNIVQFCSAASIGKEESDTGQAEFLLLTELCKGQLVEFLKKMESRGPLSCDTVLKIFYQTCRAVQHMHRQKPPIIHRDLKVENLLLSNQGTIKLCDFGSATTISHYPDYSWSAQRRALVEEEITRNTTPMYRTPEIIDLYSNFPIGEKQDIWALGCILYLLCFRQHPFEDGAKLRIVNGKYSIPPHDTQYTVFHSLIRAMLQVNPEERLSIAEVVHQLQEIAAARNVNPKSPITELLEQNGGYGSATLSRGPPPPVGPAGSGYSGGLALAEYDQPYGGFLDILRGGTERLFTNLKDTSSKVIQSVANYAKGDLDISYITSRIAVMSFPAEGVESALKNNIEDVRLFLDSKHPGHYAVYNLSPRTYRPSRFHNRVSECGWAARRAPHLHTLYNICRNMHAWLRQDHKNVCVVHCMDGRAASAVAVCSFLCFCRLFSTAEAAVYMFSMKRCPPGIWPSHKRYIEYMCDMVAEEPITPHSKPILVRAVVMTPVPLFSKQRSGCRPFCEVYVGDERVASTSQEYDKMRDFKIEDGKAVIPLGVTVQGDVLIVIYHARSTLGGRLQAKMASMKMFQIQFHTGFVPRNATTVKFAKYDLDACDIQEKYPDLFQVNLEVEVEPRDRPSREAPPWENSSMRGLNPKILFSSREEQQDILSKFGKPELPRQPGSTAQYDAGAGSPEAEPTDSDSPPSSSADASRFLHTLDWQEEKEAETGAENASSKESESALMEDRDESEVSDEGGSPISSEGQEPRADPEPPGLAAGLVQQDLVFEVETPAVLPEPVPQEDGVDLLGLHSEVGAGPAVPPQACKAPSSNTDLLSCLLGPPEAASQGPPEDLLSEDPLLLASPAPPLSVQSTPRGGPPAAADPFGPLLPSSGNNSQPCSNPDLFGEFLNSDSVTVPPSFPSAHSAPPPSCSADFLHLGDLPGEPSKMTASSSNPDLLGGWAAWTETAASAVAPTPATEGPLFSPGGQPAPCGSQASWTKSQNPDPFADLGDLSSGLQGSPAGFPPGGFIPKTATTAKGSSSWQTSRPPAQGASWPPQAKPPPKACTQPRPNYASNFSVIGAREERGVRAPSFAQKPKVSENDFEDLLSNQGFSSRSDKKGPKTIAEMRKQDLAKDTDPLKLKLLDWIEGKERNIRALLSTLHTVLWDGESRWTPVGMADLVAPEQVKKHYRRAVLAVHPDKAAGQPYEQHAKMIFMELNDAWSEFENQGSRPLF,soluble
18,EGPLHWESTLTYTSYRDRWKERDPKVILAPYVKENDPVSAIYTLIPDGIKQAGEDTPAMPDLLPGQRKYKDVNGLDEEGNLTGKPDGKIDQADVVYLGTRAPKFTMGFSNDFRYKGFDLNIYLYASVGGYSYPYTQVEHGVYGGNGIQRLKDNNNFLADIKNRWTSDNMSSAMPSGEVNSYDSYGAPNWEKNTYLRLKSVTLGYDLSRLFKADKLKVRFYFSGQNLLTFTGYKGLDPEVENDRASYPQQKTFSFGLDVKF,not soluble
19,MDFKAKLLAEMAKKRKAVSGMEVKEGNAKFVKGADLEMKRNQEYERKQQEIASKKRKVDDEILQESSSRTKPAPVENESEIDEKTPMSEIQTRLRQRNHPIMLFGETDIDVRKRLHQLELAQPDLNEGWENELQTAMKVIGKEMDKAVVEGTADSATRHDIALPQGYEEDNWKNIEHNSTLLSVDDDLKRDCDIILSICRYILARWAKDLNDRPLDVKKTAQGMHEAAHHKQTMMHLKSLMTSMERYNCNNDIRHHLAKICRLLVIDRNYLEANNAYMEMAIGNAPWPVGVTRSGIHQRPGSAKSYVSNIAHVLNDETQRKYIQAFKRLMTKMQEYFPTDPSKSVEFVKKAV,not soluble

# From the DeepSol protein solubility set
